Results reported in patent US20110182911A1 (published 2011).

Tests used:
[1] = target: recombinant human BMP-4 (human) (UniProt P12644); experiment: cell-based or functional assay
recombinant human BMP-2 = recombinant human BMP-2 (human, UniProt P12643 283-396); experiment: cell-based or functional assay
recombinant human BMP-2, sequence (P12643 283-396 limits assumed): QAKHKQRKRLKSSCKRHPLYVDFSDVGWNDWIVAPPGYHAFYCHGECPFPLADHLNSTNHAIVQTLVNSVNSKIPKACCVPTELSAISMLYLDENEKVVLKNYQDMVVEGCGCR

recombinant human BMP-4 (human), sequence (P12644 293-408 limits assumed): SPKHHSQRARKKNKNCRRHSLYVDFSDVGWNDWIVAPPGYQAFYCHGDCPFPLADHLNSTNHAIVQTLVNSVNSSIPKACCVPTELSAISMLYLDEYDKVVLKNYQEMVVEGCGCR

bovine fetuin (from UniProt P12763 19-359)
alkaline phosphatase (ALP) activity in C2C12 cells; molar ratio of antagonist to BMP at which the BMP-induced increase is completely inhibited (molar ratio (bAHSG:rhBMP-4)) [1]: > 56800 | alkaline phosphatase (ALP) activity in C2C12 cells; molar ratio of antagonist to BMP at which the BMP-induced increase is completely inhibited (molar ratio (fetuin:rhBMP-4)) [1]: > 55000

B1: recombinant mouse Noggin (other, UniProt P97466 28-232, looked up)
chain: QHYLHIRPAPSDNLPLVDLIEHPDPIFDPKEKDLNETLLRSLLGGHYDPGFMATSPPEDRPGGGGGPAGGAEDLAELDQLLRQRPSGAMPSEIKGLEFSEGLAQGKKQRLSKKLRRKLQMWLWSQTFCPVLYAWNDLGSRFWPRYVKVGSCFSKRSCSVPEGMVCKPSKSVHLTVLRWRCQRRGGQRCGWIPIQYPIISECKCSC
alkaline phosphatase (ALP) activity in C2C12 cells; molar ratio of antagonist to BMP at which the BMP-induced increase is completely inhibited (recombinant human BMP-2): 1.1 molar ratio (rmNGN:rhBMP-2)
